From the domain aggregation screens of Martell et al. (2025)

Assay: soluble fraction after stress (log2 fold change); higher = more stays soluble; pooled small domains, quantitative proteomics
Settings: stress: pH 4
How it was run: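 How much of each domain stays soluble after acid stress, expressed as a fold change, is used to gauge aggregation propensity. Pooled custom libraries of small domains underwent pH 4 stress before high-throughput quantitative proteomics. A higher log2 value means more of the domain stayed soluble.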

Row | Sequence | soluble fraction (log2)
1 | HMTPVTYELTVQSGAGQRIDKYLSEQLADLTRSYLQKLLKDGGVTVNGKTVKSNYKLSENDQIFLEVPDA | 0.0962
2 | HMTPVYLNARQKQILAFLKREEPAKVGDIAHALKTISINTLKKDLLYLRQKNLIESHGVLKGTIYTVK | 0.209
3 | HMTQEFIVPKVTGYTVEDAMNLSGVKDVFEITVDSTEKSDQPAGIILFQDPKDGSSRKSDLVIHVVVSAGS | 0.0901
4 | HMTQEQKQQISDQLRAYVEQKGSGNKAAASMNGVSSATISKVLAGKWETISEDMWRSIAAQTGH | -0.156
5 | HMTQFSLTTEEINVLKKSYSEFTDSDKELFNKILEKYNKFKNESSNDIAFEAKILEKLQEIENFYE | -1.45
6 | HMTQMSVLFSELEAKDAATIADKLRERNIPYELSNNGSTILIPQEVLHDTRLSLASEGLPES | 0.263
7 | HMTQPAEINRLVEQMGSSDYKSRQEAYERLHQMGPGILDLIYPYRNHADPEIQTRVRELILSYRW | -0.547
8 | HMTQQNRDELYRRMIDAGWDQLVRNGIRSLRVEQVAAAVGIAKGTFYHFFDSKDDFIYAMLMENRQ | -1.03
9 | HMTQSPLHWSHRPIDLSELLTYLDRDGAFVYASGHKAPFTEVVRGFEHLLNIRLGDPRDVKRSVLQR | -0.282
10 | HMTQTGEVIRWDAERGFGFIATADGRRHVFFHVRDFRGGAAPGVGLRVGFEEIQVGGKGPRAMDVRPL | -0.491
11 | HMTRDGMTKEAFDSLLEDIMNILLDNGLKATTMGSIAKSLKMSKRTLYEIFSSKSQMVEEAIIASHTKMM | -0.00738
12 | HMTREAILDTAEELLQRRGYNAFSYHHIAVQLGIRNAAIHYHFPAKEDLGIELVSRFRIRLAE | -0.238
13 | HMTRLSSREAQVISLVRDGMTNQQIAERLELSPLTIKNHVQNILRKLDVSNRAQAVAKAVKARLI | 0.00472
14 | HMTRRGPLTEGDRVQVRDPKGRFHQVILVRGGRFQSNRGGFNHDDVIGRPDGQVIITDEGRQFQIL | 0.0981
15 | HMTRYEQLAAQIRQQIEDNIWQSGDRLPSLRDTVKQSGLSLMTVLQSYQLLESQGWITARPQSGYYVAHR | -0.169
16 | HMTSGTLTLTQDTPVYTEPNKDGGVAYVQPQGDIQWDKYIFANGDNWYSFVQKNRDQEVRFYIAYSDVG | -0.623
17 | HMTSHSFVITEEVGQRLDRFISDQLDTVSRTMIQKHIRSGAVVVNGKQVKSNYLLVLNDRINIALK | -1.22
18 | HMTSISMDEKVVLGWHQVTTGAANSGMDKVVSNTSGLNVISPTWFKLSDNKGNYISIASKDYVDAAHKKGL | -0.317
19 | HMTSKTLSADGGENTRLDKFLSNHLPEISRTKIQKMINDGLVYVNQNYAKASLVLDGTELISYTIPD | 0.263
20 | HMTSLTDDELSVVMLVREREISFDEITSETGFDAARLNSVLTMLKIKGIIDETTGKHYRISGGA | -0.492
21 | HMTSLVRTSNLDGFEPLARSIGVDPVMELMRFGIPPDALIRENMFISFIGFIRLLEHTALAG | 0.206
22 | HMTSMYYLNKAVKEGNAKAIRQLLSAGININVRKRETSTPLDFAIKYKQTEIADLLRKHGGKTAEELKAEE | 0.0997
23 | HMTSNEKARNAASAERRADIVAAARELYEEQGLSKTSVQDITNRMGVARSLFYHYFPDKEAVTSAVLDDYV | -0.102
24 | HMTSPELIELGERIRKRRQEMNLSQEALAEKAGISINTVSRVEGGQTAMSIEIFRKMIEILETDANGL | -0.804
25 | HMTSRIHDYWTSPGQPGYAKIGWGTAGDFRRAKALIGEKIAANSPEDMRYLNQIIAQWHFDALGYWPGDH | -1.08

Row | Sequence | soluble fraction (log2)
26 | HMTSRLLTPRQRYVFDTAMKEGFYDVPRRITLTELASVLDVAKSTLSAQLHRIESTVHHAYADDIRRRS | 0.0724
27 | HMTSSQLNIEELERRMMMHLEQNGFITRSIYTNLTGRLKWKATEDLKIFVEKGLIRKMGRGNQMYYVKVE | -0.895
28 | HMTSSQRDSILEFLKTRKDHPTADVVYMNVRKSFPNISLGTVYRNLTLLSDIGQIAKIRVGDGVDHFDADT | -0.073
29 | HMTSSSGTITADWLNVRSGAGTNFSRLGSIAGGTRLTVISVHGEWYKITASFEGEIRTGYVHSQYVQMDGE | -1.59
30 | HMTSTEQQIEQFIGTLVSLGGSAGNQRLLEALGWQDSIYQRVKQQLIDDGRIRPGRGRGGSVVLAE | -0.302
31 | HMTSVAGIERFLASGAIKGMGAATAKLIVEHFGADTLNMLDMYPERLTEIKGIGPKKATAIIEGYRELS | -0.595
32 | HMTSVMAWRLITPIPQHGIIRSSQVQLQKHAPNSLKFLDVDSSPVGKQVKHGIAAGHWLSKDDFTE | ≥ 0.43
33 | HMTTAASIGRLVRDARKQRGLTQHELASLLSTSQSAIHRIESGNQNLSLEMINRIAQALESPLIVPGG | -0.343
34 | HMTTIRQQAEVPLSAAGRRFDQALAEMFPAYSRSRLSGWIKAGAATLDGAPAAPRQLLRGGERVELDVELE | -0.316
35 | HMTTKGGLVRDTVLNEFRDSEFTRREVELVLNGVASERTIRGALSEMVERGELTQVNFGISTRYRLNQ | -0.536
36 | HMTTLEGIEKYLGSGMIRGIGPAYAGRLTKVFGEAVFDVIEQSPERLREVEGIGPKRVSRIVSGWAEQ | -0.707
37 | HMTTLLNHLKGTRLEAGLSQQALARLAGISRQAYSALESGSSNPSTEVALRLARALKTSVDHLFSLPE | 0.0864
38 | HMTTQVPYTAKLININGGSVVNFRKEPGMNTTIIRTYPVGTEVTVLETGVNWSKVEIDGVTGYVSSYFL | -0.00711
39 | HMTTRLLTPRQRQVFDIAIREGFYDSPRRISLTELADLLGVAKSTLSVQLQRVESTIVHTFSEEIRRRS | -0.176
40 | HMTTRQREALLDYLSRHPDQPLTVREIAAGVEPDGVSLSAVYRNLAELEAAGLIRRESRPGSREAVVQYV | -0.192
41 | HMTTTTTYITNTDAVNIRQQATTSSTSLGKLAKNTILSVKKKSGDWYQITYKKQTAYIHASLVDKKTAKVT | ≥ 0.43
42 | HMTTVDYDALRAAILQQVVSEDTTPALTTENTEIKYKFKFGLDTWVDLDGGKIAPAVSAKSYEIQISFKG | 0.12
43 | HMTTYVNGSWSGWNGSTVVKLTDGSVWRQAEYHYEYHYAYRPQARLERDELFVEGMSRGVRV | -0.754
44 | HMTVADMQQKANVKRRNSNSHEAILDATVKLLGSSGYIDFSIEKVASQAGVGKQTIYRWWPSRADLVLEVW | 0.223
45 | HMTVAEVEDRMEASRVRQALDAVGEPHRTTIALAYFTGLTHTEIAQRMGVPLGTVKSRIRDGMAKMRTHLG | -0.172
46 | HMTVDHDERRSMILEAFMRLAAREGLHAVSLRGVAAEAGISLRLVQYYFETKARLMQSGLTALET | -0.501
47 | HMTVKKLIINEDNSGRRIDNYLLSIFNSVPRSKIYNIIRKGEVRVNSSRIKPSYRLEEGDQVRIPPNLDYT | -0.0871
48 | HMTVKRNILQELLKTAFKHPEDFRPSKTFYGETGIGQKRFWALYYGHKAVTQKEYYAVADYLG | 0.202
49 | HMTVLDYNENVLSKVMNAAEINDSDKEAFIAFAKDYNSDDNLYLKKEELETAAGAWNARNVE | -0.552
50 | HMTVLTDEIKVILISYIKENDFKKKHGNRKMMMTAQDMYDELVEKGYKISYPTVTQYVQKYRENETT | -0.0952

Row | Sequence | soluble fraction (log2)
51 | HMTVMTGSQRRKKILELMRDAKEPLSGGALGKETGVSRHVVVQDIALLRTQGYPIVATARGYIINE | ≥ 0.43
52 | HMTVRLSVSADGKFFWNESQVSEEELFPRLQAEAAKEPQPDLHIRGDKNVRYEFVAQAMAAAQRAGVRKI | -0.423
53 | HMTVSADQTAADAVIKLINAIGTVSENSGSAISAARSGYDALTDTQKKLVTNYNKLTQAEQVFSSLPS | -0.315
54 | HMTVSGNIAGDYKDYLPQKTDVINGMTVTYRMVDDAVYLASWKHAGQNHVFLFNDPVSVERAREMI | -0.965
55 | HMTVSIDSLFDKFEDLQEQGLGDKTEEGQELRGLIRAFIEQEHLSVRITRSTSNQELLDMIEEAMQ | -0.551
56 | HMTVSRRYTENEMETALKAYLATHNFISRRDMQQEFALTIYSARKWLNHFVDVGLIERIGLKNAPIYKL | 0.22
57 | HMTVTKYGKKILEIVSSSRSHMTAEEIFDALRQTYPTVVLATVYNNLNRLWQDDLIRKVSVEGMPDRYD | -0.0435
58 | HMTVVPNIVNQPEAAGTNLLISSNLKPGNRAVQYSDTVKAGDIISQSPEPGAQATLGGKVDYVISQGPAPT | 0.22
59 | HMTWIAEIELRLMGNGAVTGAKIVKSTDLKDVDAAIYRAALEASPYPAPESGIGGRFTIKLKY | 0.015
60 | HMTYLIKFDENGRRSDTYVAEEKTQEQVTELLEKGFVLITEEDYQLLVGNVDGKEYIRNADGTYSEYT | -0.894
61 | HMTYMWTTDGVNLRSEPNTDSAVVTVLGVGTQVRMIGEEDGWVKVSFNDQEGYIRADFLTTE | -0.476
62 | HMTYSAFITARNKRIAEEYSVLLDSLNISNNVIYRLGSWVVEVNVSDHSRAIDEIYSYERSGRIDKV | -0.534
63 | HMTYYEGYYRKNQKGFGFVIVDGRDEDIYIDAKNMNGALNNDLVVVEELKGQNGKKTEGRVVKVLKKE | -0.284
64 | HMVADLSGVGDKDIIVDQFIYHEVLPKETIYSIVKSFNVTSEDLNKNNPFLRANGLRIGQVIRIPLKI | -0.224
65 | HMVAEPTYGRTTDVLNIRSGPSTDDERIGQLSRGAVVTILEEKDGWYRLQRGYISADYVTQISAEEASNS | -0.546
66 | HMVAEPVYGKVTEGPLNVRSAPSTDSEKVDSFSTGKVLTILETLDGWYKVEEGYVSADYVTIIDAAEAASS | -0.538
67 | HMVAGHLSEKKGYYYAVLNYKDYTGKRKSKWVSTGLPVKGNKRRAEKILADIKRDFVPEEPKR | -0.0527
68 | HMVAGQDPVKRQQILDGAKRVFLGVGFDAASMNDITREAGVSKGTIYVYFGSKEELFGALIDR | -0.807
69 | HMVAMLDASYRGVMQTISTLLAQGNTERAYDEAVNARGQMSKQQWNNLANLIWERTGQKIDSGVSYK | -0.00781
70 | HMVDEAQSLERNVLLTVLSRIGRDSRVVLTHDIAQRDNLRVGRHDGVVAVVDRLKGHPLFAHVTL | -0.0346
71 | HMVDERMVTYINSLDKGNTPFLNELEKEALANYVPIIRREMQSFLKVLLQIKAPLRILEVGTAVGFSTILM | -0.354
72 | HMVDGAHKQQAAVQALTPALKVLAAAPEGKKGQAIQALRAVLKQHGRWLDDATAQQVHEQLLAAGDAQGWQ | 0.331
73 | HMVDIGQSIRVELIREGKDSHQAVGYLRDGSMVVVNHGRKLIGSTVEVEITSIVPSSAGKVIFAEYLE | -1.05
74 | HMVDIQTGQKVRIHTSQFAGKIGNITALNVKSAELPNGIRTATASILMQSNENVMLPVSNFDIIE | -0.044
75 | HMVDIVLDILKIVAEKQPGNQFSQSILMQYQERGGLSKKQLEGLYGKAKRIPEIPQNKLATLEAIILR | -0.428
